According to publication PMC11580166, “VPS26 Moonlights as a β-Arrestin-like Adapter for a 7-Transmembrane RGS Protein in Arabidopsis thaliana” (Biochemistry, 2024):

B1: Vacuolar Protein Sorting-Associated 26B (AtVPS26B) [Arabidopsis thaliana] / Vacuolar Protein Sorting-Associated 26A (AtVPS26A) [Arabidopsis thaliana] (parent complex)
chain 1: MNYLLGAFKPACNISITFSDGKNRKQVPMKKENGQTALVPLFHSQDTISGKVCIEPYQGKKVEHNGVKVELLGQIEMYFDRGNFYDFTSLVRELDVPGEIYERKTYPFEFPTVEMPYETYNGVNVRLRYVLKVTVTRGYAGSILEYQELVVRNYAPLPDINNSIKMEVGIEDCLHIEFEYNKSKYHLKDVILGKIYFLLVRIKMKNMDLEIRRRESTGAGANTHVETETLAKFELMDGTPVRGESIPVRLFLAPYDLTPTHRNINNKFSVKYYLNLVLVDEEDRRYFKQQEITLYRLKEDASS
chain 2: MNYLLGAFKPACNISITFTDGKNRKQVPTKKDNGQIVMNPLFQSQETIAGKINIEPYQGKKVEHNGVKVELLGQIEMYFDRGNFYDFTSLVREIDVPGEIYERKTYPFEFSSVEMPYETYNGVNVRLRYVLKVTVTRGYAGSIVEYQDFVVRNYVPLPPINNSIKMEVGIEDCLHIEFEYNKSKYHLKDVILGKIYFLLVRIKIKNMDLEIRRRESTGAGANTHVETETLAKFELMDGAPVRGESIPVRVFLTPYDLTPTHKNINNKFSVKYYLNLVLVDEEDRRYFKQQEITLYRLKEETS

Variants of: B1
Assay: Microscale Thermophoresis (MST); parent: 18 nM

Kd [nM] | Variant
525 | chain 1 MNYLLGAFKPACNISITFSDGKNRKQVPMKKENGQTALVPLFHSQDTISGKVCIEPYQGKKVEHNGVKVELLGQIEMYFDRGNFADFTSLVRALDVPGEIYERKTYPFEFPTVEMPYETYNGVNVRLRYVLKVTVTRGYAGSILEYQELVVRNYAPLPDINNSIKMEVGIEDCLHIEFEYNKSKYHLKDVILGKIYFLLVRIKMKNMDLEIRRRESTGAGANTHVETETLAKFELMDGTPVRGESIPVRLFLAPYDLTPTHRNINNKFSVKYYLNLVLVDEEDRRYFKQQEITLYRLKEDASS [chain 1 Y85A, chain 1 E93A]
